We go through 20 sequences from patent publication US20260055383.

Holding throughout (assay): cell_activity
Series [1] has as its system PBx (excision-only piggyBac transposase) (synthetic construct). The following applies: HEK293T, LINE1 integration 0.
The test system of series [2] is B2M right 11 bp TAL-ssSPB (synthetic construct). The following applies: paired with left 14 bp; replicate 8.87.
Series [3] has as its system B2M right 12 bp TAL-ssSPB (synthetic construct). Particulars: paired with left 14 bp; replicate 7.46.
The subject of series [4] is B2M left 9 bp TAL-ssSPB (synthetic construct). Particulars: paired with right 10 bp; replicate 4.54.
Series [5] deals with B2M left 10 bp TAL-ssSPB (synthetic construct). The following applies: paired with right 12 bp; replicate 5.48.
In series [6] the test system is B2M right 19 bp TAL-ssSPB (synthetic construct). The following applies: paired with left 14 bp; replicate 6.05.
The subject of series [7] is B2M right 20 bp TAL-ssSPB (synthetic construct). The following applies: paired with left 14 bp; replicate 5.61.
Series [8] concerns B2M left 13 bp TAL-ssSPB (synthetic construct). Particulars: paired with right 12 bp; replicate 8.38.
The test system of series [9] is B2M left 14 bp TAL-ssSPB (synthetic construct). Particulars: paired with right 11 bp; replicate 8.87.
The subject of series [10] is B2M right 9 bp TAL-ssSPB (synthetic construct). The following applies: paired with left 10 bp; replicate 5.72.
Series [11] relates to B2M right 10 bp TAL-ssSPB (synthetic construct). The following applies: paired with left 9 bp; replicate 4.54.
Series [12] relates to B2M right 15 bp TAL-ssSPB (synthetic construct). The following applies: paired with left 14 bp; replicate 4.79.
Series [13] has as its system B2M right 16 bp TAL-ssSPB (13 bp spacing) (synthetic construct). The following applies: paired with left 14 bp; replicate 7.18.
Series [14] relates to B2M right 16 bp TAL-ssSPB (14 bp spacing) (synthetic construct). The following applies: paired with left 14 bp; replicate 7.76.
Series [15] relates to B2M right 17 bp TAL-ssSPB (13 bp spacing) (synthetic construct). Particulars: paired with left 14 bp; replicate 4.52.
In series [16] the test system is LINE1 R2.2 TAL-ssSPB M226F M226F (synthetic construct). Particulars: excision 45.14.
The subject of series [17] is LINE1 R2.2 TAL-ssSPB K500R K500R (synthetic construct). The following applies: excision 33.92.
In series [18] the test system is TAL-ssSPB off-target (not specific for LINE1) (synthetic construct). The following applies: off-target control; excision 34.56.
The subject of series [19] is LINE1 R2.2 TAL-ssSPB S301A S301A (synthetic construct). The following applies: excision 39.72.
Series [20] has as its system B2M right 17 bp TAL-ssSPB (14 bp spacing) (synthetic construct). Particulars: paired with left 14 bp; replicate 5.14.
Series [21] deals with B2M right 18 bp TAL-ssSPB (synthetic construct). Particulars: paired with left 14 bp; replicate 7.49.

“CCCTAGAAAGATAATCATGCGTAAAATTGACGCATG (double strand) [Symmetrical ITR 1bpSNP]” returned an activity (% GFP positive cells) in series [1] of 91.3.

“CCCTAGAAAGATAGTCTGCGTAAAATTGACGCATG (double strand) [Symmetrical ITR 0 bp]” showed an activity (% GFP positive cells) in series [1] of 91.

In the case of “CCCTAGAAAGATAGTCTGCGTAAAATTGACGCATG / CCCTAGAAAGATAATCATATTGTGACGTACGTTAAAGATAATCATGCGTAAAATTGACGCATG [WT transposon ITRs (35 bp LE / 63 bp RE)]”, the activity (% GFP positive cells) in [1] was found to be 98.8.

In the case of “TCTGAGCTTCTA (double strand) [B2M right 11 bp target]”, the activity (% B2M alleles edited) in series [2] is 7.63.

In series [3], “TCTGAGCTTCTAA (double strand) [B2M right 12 bp target]” displayed an activity (% B2M alleles edited) of 6.8.

“TCTGTGCTCT (double strand) [B2M left 9 bp target]” showed an activity (% B2M alleles edited) in series [4] of 5.38.

Sequence “TCTGTGCTCTG (double strand) [B2M left 10 bp target]” displayed an activity (% B2M alleles edited) in series [5] of 6.02.

Consider “TCTTTGCATCTGAGCTTCTA (double strand) [B2M right 19 bp target]”, for which, in series [6], the activity (% B2M alleles edited) is 5.45.

In [7], “TCTTTGCATCTGAGCTTCTAA (double strand) [B2M right 20 bp target]” displayed an activity (% B2M alleles edited) of 4.65.

“TGAATCTGTGCTCT (double strand) [B2M left 13 bp target]” showed an activity (% B2M alleles edited) in [8] of 6.55.

In turn, “TGAATCTGTGCTCTG (double strand) [B2M left 14 bp target]” yielded an activity (% B2M alleles edited) in series [9] of 7.63.

Sequence “TGAGCTTCTA (double strand) [B2M right 9 bp target]” had an activity (% B2M alleles edited) in series [10] of 5.73.

As for “TGAGCTTCTAA (double strand) [B2M right 10 bp target]”, in [11], the activity (% B2M alleles edited) came to 5.38.

Regarding “TGCATCTGAGCTTCTA (double strand) [B2M right 15 bp target]”, the activity (% B2M alleles edited) in series [12] is 6.25.

On to “TGCATCTGAGCTTCTAA (double strand) [B2M right 16 bp target, 13 bp spacing]”, for which, in [13], the activity (% B2M alleles edited) worked out at 6.

As to “TTGCATCTGAGCTTCTA (double strand) [B2M right 16 bp target, 14 bp spacing]”, the activity (% B2M alleles edited) in [14] is 6.39.

As for “TTGCATCTGAGCTTCTAA (double strand) [B2M right 17 bp target, 13 bp spacing]”, in series [15], the activity (% B2M alleles edited) was 5.66.

For the sequence “TTGTCTCTTTT (double strand) [LINE1 R2.2 right target]”, the activity (% mScarlet positive cells) was determined as 21.6 in series [16], 19.1 in [17], 0.29 in [18] and 20.2 in series [19].

As to “TTTGCATCTGAGCTTCTA (double strand) [B2M right 17 bp target, 14 bp spacing]”, in series [20], the activity (% B2M alleles edited) worked out at 4.96.

“TTTGCATCTGAGCTTCTAA (double strand) [B2M right 18 bp target]” showed an activity (% B2M alleles edited) in series [21] of 5.76.
